Laboratory results published in patent US20250296971A1, “GASTRIC INHIBITORY PEPTIDE RECEPTOR LIGANDS” (priority 2021, published 2025).
*1 amine or outer side, *2 acyl side, *3 side chain or, on linkers, in order; H or OH if unused. Bridges are numbered along the chain shown (N, C = ends). Primed or numbered codes have the meaning given here. Where no end group is shown, it is not given here. [ ]: non-standard residue; d: D form. The star is where a group is joined. Ttds = 1,13-diamino-4,7,10-trioxatridecan-succinamic acid, NCCCOCCOCCOCCCNC(=O)CCC(=O)*; APAc″ = 4-amino-1-carboxymethylpiperidine, NC1CCN(CC(=O)*)CC1; DOTA = O=C(O)CN1CCN(CC(=O)O)CCN(CC(=O)*)CCN(CC(=O)O)CC1; Trp(5-Cl) = N[C@@H](Cc1c[nH]c2ccc(Cl)cc12)C(=O)O; AETO = 2-aminoethane-1-thiol oxidized; mXylylene = c1cc(C[*:1])cc(C[*:2])c1; Hyp = O=C(O)[C@@H]1C[C@@H](O)CN1; Cysteamide = C(CS[*:3])N[*:1]; hLeu = CC(C)CC[C@H](N)C(=O)O; 2Lut(3) = 2,6-lutidylidene; Ac6c = NC1(C(=O)O)CCCCC1; 3Lut = 3,5-lutidylidene; Api = NC1(C(=O)O)CCNCC1; Thp = NC1(C(=O)O)CCOCC1; Dap = NC[C@H](N)C(=O)O; Aib = CC(C)(N)C(=O)O

Biological target: human Gastric Inhibitory Peptide Receptor (human) (UniProt P48546)
Assay: FACS competition with GIP-057 on CHO-K1-hGIPR cells; pIC50 category A: >8.0

| pIC50 [pic50] | Binder |
| --- | --- |
| > 8 | {DOTA-Ttds}-DW[Trp(5-Cl)]PE[dL][Dap][Aib]LI[AETO] (linker (positions not given here) via mXylylene; not fully specified (bridges)) [DOTA-Ttds-Asp-Trp-5Clw-Pro-Glu-leu-[Dap(3MeBn)-Aib-Leu-Ile-AETO]] |
| > 8 | {DOTA-Ttds}-DW[Trp(5-Cl)][Hyp]E[dL]C[Aib]LI[Cysteamide] (linker (positions not given here) via mXylylene; not fully specified (bridges); printed as DOTA-Ttds-Asp-Trp-5Clw-Hyp-Glu-leu-[Cys(3MeBn)-Aib-Leu-Ile-AET]) [DOTA-Ttds-Asp-Trp-5Clw-Hyp-Glu-leu-[Cys(3MeBn)-Aib-Leu-Ile-AET]] |
| > 8 | {DOTA-Ttds}-DW[Trp(5-Cl)]PE[dL]C[Aib]LI[Cysteamide] (linker (positions not given here) via 2Lut(3); not fully specified (bridges); printed as DOTA-Ttds-Asp-Trp-5Clw-Pro-Glu-leu-[Cys(2Lut)-Aib-Leu-Ile-AET]) [DOTA-Ttds-Asp-Trp-5Clw-Pro-Glu-leu-[Cys(2Lut)-Aib-Leu-Ile-AET]] |
| > 8 | {DOTA-Ttds}-DW[Trp(5-Cl)]PE[dL]C[Ac6c]LI[Cysteamide] (linker (positions not given here) via mXylylene; not fully specified (bridges); printed as DOTA-Ttds-Asp-Trp-5Clw-Pro-Glu-leu-[Cys(3MeBn)-Egz-Leu-Ile-AET]) [DOTA-Ttds-Asp-Trp-5Clw-Pro-Glu-leu-[Cys(3MeBn)-Egz-Leu-Ile-AET]] |

The remaining lines, values behind:

| Binder | pIC50 [pic50] |
| --- | --- |
| {DOTA-Ttds}-DW[Trp(5-Cl)]PE[dL]C[Aib]LI[Cysteamide] (linker (positions not given here) via 3Lut; not fully specified (bridges); printed as DOTA-Ttds-Asp-Trp-5Clw-Pro-Glu-leu-[Cys(3Lut)-Aib-Leu-Ile-AET]) [DOTA-Ttds-Asp-Trp-5Clw-Pro-Glu-leu-[Cys(3Lut)-Aib-Leu-Ile-AET]] | > 8 |
| {DOTA-Ttds}-DW[Trp(5-Cl)]PE[dL]C[Api]LI[Cysteamide] (linker (positions not given here) via mXylylene; not fully specified (bridges); printed as DOTA-Ttds-Asp-Trp-5Clw-Pro-Glu-leu-[Cys(3MeBn)-Apc-Leu-Ile-AET]) [DOTA-Ttds-Asp-Trp-5Clw-Pro-Glu-leu-[Cys(3MeBn)-Apc-Leu-Ile-AET]] | > 8 |
| {DOTA-APAc″}-DW[Trp(5-Cl)]PE[dL]C[Aib]LI[Cysteamide] (linker 7-11 via mXylylene) [DOTA-APAc-Asp-Trp-5Clw-Pro-Glu-leu-[Cys(3MeBn)-Aib-Leu-Ile-AET]] | > 8 |
| {DOTA-Ttds}-DW[Trp(5-Cl)]PE[dL]C[Aib][hLeu]I[Cysteamide] (linker (positions not given here) via mXylylene; not fully specified (bridges); printed as DOTA-Ttds-Asp-Trp-5Clw-Pro-Glu-leu-[Cys(3MeBn)-Aib-Hle-Ile-AET]) [DOTA-Ttds-Asp-Trp-5Clw-Pro-Glu-leu-[Cys(3MeBn)-Aib-Hle-Ile-AET]] | > 8 |
| {DOTA-Ttds}-DW[Trp(5-Cl)]PE[dL]C[Thp]LI[Cysteamide] (linker (positions not given here) via mXylylene; not fully specified (bridges); printed as DOTA-Ttds-Asp-Trp-5Clw-Pro-Glu-leu-[Cys(3MeBn)-Thp-Leu-Ile-AET]) [DOTA-Ttds-Asp-Trp-5Clw-Pro-Glu-leu-[Cys(3MeBn)-Thp-Leu-Ile-AET]] | > 8 |
| {DOTA-Ttds}-DW[Trp(5-Cl)]PE[dL][Dap][Aib]LI[Cysteamide] (linker (positions not given here) via mXylylene; not fully specified (bridges); printed as DOTA-Ttds-Asp-Trp-5Clw-Pro-Glu-leu-[Dap(3MeBn)-Aib-Leu-Ile-AET]) [DOTA-Ttds-Asp-Trp-5Clw-Pro-Glu-leu-[Dap(3MeBn)-Aib-Leu-Ile-AET]] | > 8 |
| DWXPEXCXLI (N-term DOTA-Ttds; 5Clw; leu (D-Leu); cycle [Cys(3MeBn)..en]; Aib) [DOTA-Ttds-Asp-Trp-5Clw-Pro-Glu-leu-[Cys(3MeBn)-Aib-Leu-Ile-en]] | > 8 |
